From patent US20030186841A1

Columns and labels:
Experiment in all cases: cell-based or functional assay
ER-KRAB (mouse; human) = ER-KRAB (mouse; human) (UniProt P19785)
ER-VP64 (mouse) = ER-VP64 (mouse) (UniProt P19785)
Cf2-PBD-VP64 (human) = Cf2-PBD-VP64 (human) (UniProt P06401)
Cf2-PBD-VP64 (human), sequence (P06401 640-914): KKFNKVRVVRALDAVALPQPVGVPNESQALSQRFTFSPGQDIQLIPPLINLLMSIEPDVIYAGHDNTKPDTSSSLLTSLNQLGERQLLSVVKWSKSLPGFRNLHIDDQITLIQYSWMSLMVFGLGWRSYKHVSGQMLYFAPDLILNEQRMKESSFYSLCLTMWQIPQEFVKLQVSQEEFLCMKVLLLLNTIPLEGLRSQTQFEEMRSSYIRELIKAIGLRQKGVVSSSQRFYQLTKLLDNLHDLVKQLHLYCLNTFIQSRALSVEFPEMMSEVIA

ER-KRAB (mouse; human), sequence (P19785 other isoform, or with tags, fused parts or gaps): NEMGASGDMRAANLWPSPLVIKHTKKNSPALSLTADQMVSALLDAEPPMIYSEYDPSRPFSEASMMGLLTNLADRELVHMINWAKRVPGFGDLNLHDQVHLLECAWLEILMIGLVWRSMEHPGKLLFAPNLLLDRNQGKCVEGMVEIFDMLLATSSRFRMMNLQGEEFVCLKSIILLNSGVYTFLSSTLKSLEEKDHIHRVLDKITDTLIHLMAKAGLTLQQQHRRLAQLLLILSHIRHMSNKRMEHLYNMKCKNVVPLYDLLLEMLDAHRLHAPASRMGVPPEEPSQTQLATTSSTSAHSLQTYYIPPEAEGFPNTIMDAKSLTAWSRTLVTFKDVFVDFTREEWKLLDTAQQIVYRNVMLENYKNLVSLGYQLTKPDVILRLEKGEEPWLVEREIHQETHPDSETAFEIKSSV
C7-PBD-VP64, sequence (P06401 640-914): as the sequence (P06401 640-914) above

E2C-ER (from UniProt P19785 282-599)
luciferase assay, tamoxifen-dependent repression of the erbB-2 promoter (ER-KRAB (mouse; human)): 2.9 fold
luciferase assay, erbB-2 promoter activity in HeLa cells, with and without Tamoxifen (ER-VP64 (mouse)): 3 fold
luciferase assay, tamoxifen-dependent activation of the erbB-2 promoter (ER-VP64 (mouse)): 5.3 fold

C7-PBD-VP64 (from UniProt P06401 640-914)
luciferase assay, C7-Cf2 TATA reporter, ligand-dependent change in transcription (Cf2-PBD-VP64 (human)): 2 fold
